Patent publication US20030204066A1 (published 2003)

Columns and labels:
[1] = target: human tumor necrosis factor-α (TNFα) (human, UniProt P01375 77-233); experiment: cell-based or functional assay
[2] = target: T1, human lymphotoxin (TNFβ) (human, UniProt P01374 35-205, limits assumed); experiment: cell-based or functional assay
T1 sequence (looked up): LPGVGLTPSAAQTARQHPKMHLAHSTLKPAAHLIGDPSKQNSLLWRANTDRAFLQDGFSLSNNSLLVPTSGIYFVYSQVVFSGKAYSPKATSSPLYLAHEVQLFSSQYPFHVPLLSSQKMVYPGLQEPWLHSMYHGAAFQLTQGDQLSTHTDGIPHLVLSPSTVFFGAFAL

human tumor necrosis factor-α (TNFα), sequence (P01375 77-233): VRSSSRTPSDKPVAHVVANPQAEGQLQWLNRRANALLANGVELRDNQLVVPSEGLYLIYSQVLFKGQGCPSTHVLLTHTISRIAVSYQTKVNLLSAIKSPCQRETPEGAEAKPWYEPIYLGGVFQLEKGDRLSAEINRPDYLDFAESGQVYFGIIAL

B1: p55-sf2 (p55 TNF receptor / IgG1 heavy chain single fusion with truncated light chain JCK) (Fc fusion)
chain 1: QVCPQGKYIHPQNNSICCTKCHKGTYLYNDCPGPGQDTDCRECESGSFTASENHLRHCLSCSKCRKEMGQVEISSCTVDRDTVCGCRKNQYRHYWSENLFQCFNCSLCLNGTVHLSCQEKQNTVCTCHAGFFLRENECVSCSNCKKSLECTKLCLPQIGTLVTVSS
chain 2: GTKLEIK
In the case of B1, the “IC50 = concentration of fusion protein required to inhibit 2 ng/ml (39.2 pM) TNFα by 50% (WEHI 164 cytotoxicity)” value [1] is reported as 70 pM.

B2: p55-df2 (double fusion: p55 on both the IgG1 heavy chain and the kappa light chain) (Fc fusion)
chain 1: QVCPQGKYIHPQNNSICCTKCHKGTYLYNDCPGPGQDTDCRECESGSFTASENHLRHCLSCSKCRKEMGQVEISSCTVDRDTVCGCRKNQYRHYWSENLFQCFNCSLCLNGTVHLSCQEKQNTVCTCHAGFFLRENECVSCSNCKKSLECTKLCLPQIGTLVTVSS
chain 2: DSVCPQGKYIHPQNNSICCTKCHKGTYLYNDCPGPGQDTDCRECESGSFTASENHLRHCLSCSKCRKEMGQVEISSCTVDRDTVCGCRKNQYRHYWSENLFQCFNCSLCLNGTVHLSCQEKQNTVCTCHAGFFLRENECVSCSNCKKSLECTKLCLPQIGTKLEIK
For B2, the “IC50 = concentration of fusion protein required to inhibit 2 ng/ml (39.2 pM) TNFα by 50% (WEHI 164 cytotoxicity)” value [1] was 55 pM.

B3: p75P-sf2 (p75 amino acids 1-182 / IgG1 heavy chain fusion) (Fc fusion)
chain 1: QLPAQVAFTPYAPEPGSTCRLREYYDQTAQMCCSKCSPGQHAKVFCTKTSDTVCDSCEDSTYTQLWNWVPECLSCGSRCSSDQVETQACTREQNRICTCRPGWYCALSKQEGCRLCAPLRKCRPGFGVARPGTETSDVVCKPCAPGTFSNTTSSTDICRPHQICNVVAIPGNASMDAVCTSTSGTLVTVSS
chain 2: GTKLEIK
With B3 the “IC50 = concentration of fusion protein required to inhibit 2 ng/ml (39.2 pM) TNFα by 50% (WEHI 164 cytotoxicity)” value [1] was 70 pM.

B4: p75-sf2 (complete p75 extracellular domain / IgG1 heavy chain fusion) (Fc fusion)
chain 1: QLPAQVAFTPYAPEPGSTCRLREYYDQTAQMCCSKCSPGQHAKVFCTKTSDTVCDSCEDSTYTQLWNWVPECLSCGSRCSSDQVETQACTREQNRICTCRPGWYCALSKQEGCRLCAPLRKCRPGFGVARPGTETSDVVCKPCAPGTFSNTTSSTDICRPHQICNVVAIPGNASMDAVCTSTSPTRSMAPGAVHLPQPVSTRSQHTQPTPEPSTAPSTSFLLPMGPSPPAEGSTGDGTLVTVSS
chain 2: GTKLEIK
B4 was tested, and the “amount needed for the same inhibition of TNFβ cytotoxicity, against p75P-sf2” value [2] was 3 fold (against p75P-sf2).
